From USRE47150 (Bayer, dated 2018)
Where a chain is given by its changes, count along the chain named. In names and notes the source's numbering stands.

T1: human tissue factor pathway inhibitor (TFPI) (human, UniProt P10646 29-304, limits assumed)
T1 construct: bought; also called hTFPI; human TFPI
T1 sequence (looked up): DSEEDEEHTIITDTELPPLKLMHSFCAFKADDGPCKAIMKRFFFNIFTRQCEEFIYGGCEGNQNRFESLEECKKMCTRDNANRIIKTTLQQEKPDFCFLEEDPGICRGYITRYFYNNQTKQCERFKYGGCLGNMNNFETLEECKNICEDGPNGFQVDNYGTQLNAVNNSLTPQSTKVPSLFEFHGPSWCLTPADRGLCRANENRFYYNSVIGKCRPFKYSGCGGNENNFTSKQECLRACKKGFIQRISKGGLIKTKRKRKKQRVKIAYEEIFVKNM

T2: mouse tissue factor pathway inhibitor (TFPI) (mouse, UniProt O54819 29-289, limits assumed)
T2 construct: bought; also called mTFPI; murine TFPI
T2 sequence (looked up): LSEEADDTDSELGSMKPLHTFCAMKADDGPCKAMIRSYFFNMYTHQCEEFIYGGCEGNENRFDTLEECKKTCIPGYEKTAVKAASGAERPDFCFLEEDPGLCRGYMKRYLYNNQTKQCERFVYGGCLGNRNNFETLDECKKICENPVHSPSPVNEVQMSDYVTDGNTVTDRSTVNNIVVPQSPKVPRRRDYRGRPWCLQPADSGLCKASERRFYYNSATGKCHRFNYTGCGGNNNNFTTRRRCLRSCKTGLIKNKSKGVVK

B1: 4B7 HC_D62I (Fab, V domains shown)
VH: QVQLQQSGPGLVKPSQTLSLTCAISGDSVSSNSAAWSWIRQSPGRGLEWLGIIYKRSKWYNIYAVSVKSRITINPDTSKNQFSLQLNSVTPEDTAVYYCARWHSDKHWGFDYWGQGTLVTVSS
VL: DIVMTQSPLSLPVTPGEPASISCRSSQSLVFSDGNTYLNWYLQKPGQSPQLLIYKGSNRASGVPDRFSGSGSGTDFTLKISRVEAEDVGVYYCQQYDSYPLTFGQGTKVEIKR
B2: 4B7 LC_D97T (Fab, V domains shown)
VH: B1 VH with I62D
VL: B1 VL with D97T
B3: 4B7 HC_D62Q (Fab, V domains shown)
VH: B1 VH with I62Q
VL: B1 VL
B4: 4B7 HC_H107M (Fab, V domains shown)
VH: B1 VH with I62D, H107M
VL: B1 VL
B5: 4B7 LC_D33R (Fab, V domains shown)
VH: B1 VH with I62D
VL: B1 VL with D33R
B6: 4B7 LC_D33F LC_Y54F (Fab, V domains shown)
VH: B1 VH with I62D
VL: B1 VL with D33F, Y54F
B7: 4B7 HC_H103G (Fab, V domains shown)
VH: B1 VH with I62D, H103G
VL: B1 VL
B8: 4B7 HC_D62V (Fab, V domains shown)
VH: B1 VH with I62V
VL: B1 VL
B9: 4B7 HC_N32E (Fab, V domains shown)
VH: B1 VH with N32E, I62D
VL: B1 VL
B10: 4B7 HC_H107M LC_F31I (Fab, V domains shown)
VH: B1 VH with I62D, H107M
VL: B1 VL with F31I
B11: 4B7 HC_G109A LC_D33R (Fab, V domains shown)
VH: B1 VH with I62D, G109A
VL: B1 VL with D33R
B12: 4B7 HC_S57K (Fab, V domains shown)
VH: B1 VH with S57K, I62D
VL: B1 VL
B13: 4B7 HC_D62S (Fab, V domains shown)
VH: B1 VH with I62S
VL: B1 VL
B14: 4B7 HC_D62L (Fab, V domains shown)
VH: B1 VH with I62L
VL: B1 VL
B15: 4B7 HC_N61G (Fab, V domains shown)
VH: B1 VH with N61G, I62D
VL: B1 VL
B16: 4B7 HC_D62N (Fab, V domains shown)
VH: B1 VH with I62N
VL: B1 VL
B17: 4B7 HC_S30R HC_S57K (Fab, V domains shown)
VH: B1 VH with S30R, S57K, I62D
VL: B1 VL
B18: 4B7 HC_N32D (Fab, V domains shown)
VH: B1 VH with N32D, I62D
VL: B1 VL
B19: 4B7 LC_F31I (Fab, V domains shown)
VH: B1 VH with I62D
VL: B1 VL with F31I
B20: 4B7 LC_D97M (Fab, V domains shown)
VH: B1 VH with I62D
VL: B1 VL with D97M
B21: 4B7 LC_D33F (Fab, V domains shown)
VH: B1 VH with I62D
VL: B1 VL with D33F
B22: 4B7 HC_S33G (Fab, V domains shown)
VH: B1 VH with S33G, I62D
VL: B1 VL
B23: 4B7 HC_Y112D (Fab, V domains shown)
VH: B1 VH with I62D, Y112D
VL: B1 VL
B24: 4B7 HC_H103D (Fab, V domains shown)
VH: B1 VH with I62D, H103D
VL: B1 VL
B25: 4B7 HC_N61G HC_D62V (Fab, V domains shown)
VH: B1 VH with N61G, I62V
VL: B1 VL
B26: 4B7 HC_S57R (Fab, V domains shown)
VH: B1 VH with S57R, I62D
VL: B1 VL
B27: 4B7 HC_K58M HC_D62N (Fab, V domains shown)
VH: B1 VH with K58M, I62N
VL: B1 VL
B28: 2A8 HC S35D+S55R+K99L/LC D1S+I2Y+A13S+S21T+R28P+N29K+Y48F+N51V+E80M+S89A+D91W+D92S+G93S+V94T (Fab, V domains shown)
VH: QVQLVESGGGLVQPGGSLRLSCAASGFTFRSYGMDWVRQAPGKGLEWVSSIRGSRSSTYYADSVKGRFTISRDNSKNTLYLQMNSLRAEDTAVYYCARLYRYWFDYWGQGTLVTVSS
VL: SYELTQPPSVSVSPGQTARITCSGDNLPKYYAHWYQQKPGQAPVVVIFYDVNRPSGIPERFSGSNSGNTATLTISGTQAMDEADYYCQAWWSSTPVFGGGTKLTVLG
B29: 2A8 HC Q1E+R30S+S35D+S55R+S56G+K99L/LC D1S+I2Y+A13S+S21T+R28P+Y48F+N51V+E80M+D91W (Fab, V domains shown)
VH: B28 VH with Q1E, R30S, S56G
VL: B28 VL with K29N, A89S, S92D, S93G, T94V
B30: 2A8 HC Q1E+S31V+S50A+I51D+S55R+S56G+K99V/LC D1S+I2Y+A13S+S21T+R28P+N29K+Y48F+E80M+D91L+D92S+V94T+V96W (Fab, V domains shown)
VH: B28 VH with Q1E, S31V, D35S, S50A, I51D, S56G, L99V
VL: B28 VL with V51N, A89S, W91L, S93G, V96W
B31: 2A8 HC Q1E+R30S+S35D+S55R+S56G+K99L/LC D1S+I2Y+A13S+S21T+R28P+N29K+Y48F+N51V+E80M+D91W (Fab, V domains shown)
VH: B28 VH with Q1E, R30S, S56G
VL: B28 VL with A89S, S92D, S93G, T94V
B32: 2A8 HC S31V+I51D+S55R+K99V/LC D1S+I2Y+A13S+S21T+R28P+N29K+Y48F+E80M+D91L+D92S+V94T+V96W (Fab, V domains shown)
VH: B28 VH with S31V, D35S, I51D, L99V
VL: B28 VL with V51N, A89S, W91L, S93G, V96W
B33: 2A8 HC Q1E+R30S+S35D+S55R+S56G+K99L/LC D1S+I2Y+A13S+S21T+R28P+Y48F+N51V+E80M+S89A+D91W+D92S+G93S+V94T (Fab, V domains shown)
VH: B28 VH with Q1E, R30S, S56G
VL: B28 VL with K29N
B34: 2A8 HC S31V+I51D+S55R+K99V/LC D1S+I2Y+A13S+S21T+R28P+N29K+Y48F+Y49R+N51S+E80M+D91L+D92S+V94T+V96W (Fab, V domains shown)
VH: B28 VH with S31V, D35S, I51D, L99V
VL: B28 VL with Y49R, V51S, A89S, W91L, S93G, V96W
B35: 2A8 HC Q1E+S31V+S50A+I51D+S55R+S56G+K99V/LC D1S+I2Y+A13S+S21T+R28P+N29K+Y48F+N51S+E80M+D91L+D92S+V94T+V96W (Fab, V domains shown)
VH: B28 VH with Q1E, S31V, D35S, S50A, I51D, S56G, L99V
VL: B28 VL with V51S, A89S, W91L, S93G, V96W

Molecular target: T1, human tissue factor pathway inhibitor …
Assay: competitive ELISA

Row | variant/wild-type | Binder
1 | 9.8 ratio | B1
2 | 1.8 ratio | B2
3 | 20.6 ratio | B3
4 | 8.1 ratio | B4
5 | 3.6 ratio | B5
6 | 4.3 ratio | B6
7 | 1.4 ratio | B7
8 | 31.9 ratio | B8
9 | 3.2 ratio | B9
10 | 1.7 ratio | B10
11 | 3.8 ratio | B11
12 | 1.7 ratio | B12
13 | 29.3 ratio | B13
14 | 6.8 ratio | B14
15 | 2.2 ratio | B15
16 | 52.3 ratio | B16
17 | 1.6 ratio | B17
18 | 3.8 ratio | B18
19 | 9.1 ratio | B19
20 | 2.4 ratio | B20
21 | 5.3 ratio | B21
22 | 1.5 ratio | B22
23 | 2.9 ratio | B23
24 | 2.4 ratio | B24
25 | 8 ratio | B25
26 | 2 ratio | B26
27 | 6.6 ratio | B27

Molecular target: T1, human tissue factor pathway inhibitor …
Assay: competitive ELISA
Remark: another data set of the same source

Row | variant/HC_K99L | Binder
28 | 21.4 ratio | B28
29 | 18.7 ratio | B29
30 | 9.8 ratio | B30
31 | 19.8 ratio | B31
32 | 18 ratio | B32
33 | 18.8 ratio | B33
34 | 2.2 ratio | B34
35 | 11.4 ratio | B35

Molecular target: T2, mouse tissue factor pathway inhibitor …
Assay: competitive ELISA

Row | variant/HC_K99L | Binder
36 | 16.8 ratio | B28
37 | 15.1 ratio | B29
38 | 5.9 ratio | B30
39 | 15.5 ratio | B31
40 | 15.4 ratio | B32
41 | 12.3 ratio | B33
42 | 2.4 ratio | B34
43 | 7.1 ratio | B35

Molecular target: T2, mouse tissue factor pathway inhibitor …
Assay: equilibrium ELISA

Row | variant/wild-type | Binder
44 | 44.4 ratio | B1
45 | 5.5 ratio | B2
46 | 142 ratio | B3
47 | 5.6 ratio | B4
48 | 7.2 ratio | B5
49 | 7.9 ratio | B6
50 | 10.7 ratio | B7
51 | 95 ratio | B8
52 | 2.1 ratio | B9
53 | 9.2 ratio | B10
54 | 8 ratio | B11
55 | 6.5 ratio | B12
56 | 146 ratio | B13
57 | 22.9 ratio | B14
58 | 1.4 ratio | B15
59 | 146 ratio | B16
60 | 6.6 ratio | B17
61 | 6 ratio | B18
62 | 23.6 ratio | B19
63 | 1.3 ratio | B20
64 | 7 ratio | B21
65 | 6.5 ratio | B22
66 | 5.7 ratio | B23
67 | 12.9 ratio | B24
68 | 31.1 ratio | B25
69 | 15.2 ratio | B27
